Test results taken from article PMC5378873 (Oncogene, 2016).

Biological target: FKBP12 (protein used for ITC) (human, UniProt P62942 1-108)
Test: ITC

Chain of FKBP12 (protein used for ITC) (P62942 whole entry): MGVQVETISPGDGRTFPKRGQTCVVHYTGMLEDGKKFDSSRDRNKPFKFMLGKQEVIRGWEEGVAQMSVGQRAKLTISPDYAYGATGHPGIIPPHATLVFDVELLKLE

Kd: 1.94 µM
B1: MDM2 (425-491) RING domain (protein used for ITC) (domain or fragment, human, UniProt Q00987 425-491, looked up)
chain: SVESSLPLNAIEPCVICQGRPKNGCIVHGKTGHLMACFTCAKKLKKRNKPCPVCRQPIQMIVLTYFP
